Measured values as given in patent publication US20200353088A1, “PEPTIDE CONJUGATE CGRP RECEPTOR ANTAGONISTS AND METHODS OF PREPARATION AND USES THEREOF” (Auckland UniServices Limited, priority 2017, published 2020).
Where a SMILES comes first, the peptide text is derived from it. Where no end group is shown, it is not given here. The star is where a group is joined. Ethyl(2-palmitoyloxy) = CCCCCCCCCCCCCCCC(=O)OCC*

B1: 7C(S-Pam) CGRP7-37 B1 (peptide)
peptide: CVTHRLAGLLSRSGGVVKNNFVPTNVGSKAF
modifications: Cys 7 (CGRP numbering; residue 1 of the entry) S-conjugated to 2-(palmitoyloxy)ethyl (S-Pam); C-terminal amide

Tests used:
[1] = biological target: T1, AMY1 (CTR/RAMP1) receptor (Homo sapiens, UniProt O60894+P30988); assay: cAMP assay with antagonist pre-incubation, with or without wash step, CTR/RAMP1 transfected Cos 7 cells; assay type: cell-based; settings: 15 min antagonist pre-incubation, mean ± s.e.m (n)
T1 construct: expressed in transfected cells; host or cells: Cos 7 (African green monkey kidney), transient transfection with polyethylenimine
Procedure: Cos 7 cells were cultured in Dulbecco's Modified Eagle Medium (DMEM) supplemented with 8% heat inactivated fetal bovine serum and kept in a 37° C. humidified 95% air/5% CO2 incubator. […] In a different specific experimental paradigm, media was replaced with DMEM containing 1 mM isobutylmethylxanthine and 0.1% bovine serum albumin for 30 min. After this period, 25 μl of antagonist or media was added for 15 minutes at 37° C. as a pre-incubation period. After pre-incubation, the antagonist or media were aspirated from some wells, washed once with phosphate-buffered saline and replaced with 75 μl new media. The other wells with antagonist were not washed. […] Once human alpha CGRP was added, the cells were incubated at 37° C. for 15 minutes. The media was then aspirated from the wells and reactions terminated with ice-cold absolute ethanol. […] Calculation of Antagonist Potency Values Data were analysed using Graphpad Prism 7. Antagonist pKB or pA2 values were obtained using Global Schild analysis. […] Where a single concentration of antagonist was used, pA2 values are used to describe antagonist potency.

[2] = biological target: T2, CGRP (CLR/RAMP1) receptor (Homo sapiens, UniProt O60894+Q16602); assay: Antagonism of CGRP-induced cAMP accumulation in Cos 7 cells transfected with CLR/RAMP1; assay type: cell-based; settings: transfected Cos-7 cells, cAMP, human alpha CGRP; mean ± s.e.m (n); Global Schild analysis; read-out: Antagonist potency (pKB), CGRP (CLR/RAMP1) (converted)
T2 construct: expressed in transfected cells; host or cells: Cos 7 (African green monkey kidney), transient transfection with polyethylenimine
Procedure: (§1) 1. Antagonism of CGRP-Induced cAMP Accumulation in Transfected CGRP Receptor Expressing Cells
(§2) Simian vacuolating virus 40 (SV40) transformed African green monkey kidney (Cos 7) cells were transiently transfected with calcitonin receptor-like receptor (CLR) or calcitonin receptor (CTR) together with receptor activity-modifying protein 1 (RAMP1) to form CGRP or AMY1(a) receptors.
(§3) On the day of experimentation, media was replaced with 50 μl DMEM containing 1 mM isobutylmethylxanthine and 0.1% bovine serum albumin for 30 min. All peptides were diluted in assay medium and after the 30 min incubation, 25 μl antagonists were added, followed immediately by 25 μl human alpha CGRP (hαCGRP), giving a total assay volume of 100 μl. Once human alpha CGRP was added, the cells were incubated at 37° C. for 15 minutes. The media was then aspirated from the wells and reactions terminated with ice-cold absolute ethanol. Ethanol was evaporated to dryness and cAMP was quantified using a commercially-available assay (LANCE Perkin Elmer).
(§4) 3. Calculation of Antagonist Potency Values
(§5) Data were analysed using Graphpad Prism 7. Antagonist pKB or pA2 values were obtained using Global Schild analysis. […] Where a single concentration of antagonist was used, pA2 values are used to describe antagonist potency.

[3] = biological target: T1, AMY1 (CTR/RAMP1) receptor; assay: Antagonism of CGRP-induced cAMP accumulation in Cos 7 cells transfected with CTR/RAMP1; assay type: cell-based; settings: transfected Cos-7 cells
Procedure: as §1, §2, §3, §4, §5

[4] = biological target: T3, CGRP receptor endogenously expressed in SK-N-MC cells (Homo sapiens, UniProt O60894+Q16602); assay: Antagonism of CGRP-induced cAMP accumulation in SK-N-MC cells; assay type: cell-based; settings: human alpha CGRP, mean ± s.e.m (n), read-out: SK-N-MC (pA2) (converted)
T3 construct: SK-N-MC are human neuroblastoma-derived cells that endogenously express a CGRP receptor; endogenous in cells; host or cells: SK-N-MC human neuroblastoma-derived cells
Procedure: The cells were cultured in DMEM supplemented with 8% heat inactivated fetal bovine serum and kept in a 37° C. humidified 95% air/5% CO2 incubator. […] On the day of experimentation, media was replaced with DMEM containing 1 mM isobutylmethylxanthine and 0.1% bovine serum albumin for 30 min. After this period antagonists were added, followed by human alpha CGRP. Once human alpha CGRP was added, the cells were incubated at 37° C. for 15 minutes. The media was then aspirated from the wells and reactions terminated with ice-cold absolute ethanol. […] Calculation of Antagonist Potency Values Data were analysed using Graphpad Prism 7. Antagonist pKB or pA2 values were obtained using Global Schild analysis. […] Where a single concentration of antagonist was used, pA2 values are used to describe antagonist potency.

[5] = biological target: CGRP receptor endogenously expressed by SK-N-MC human neuroblastoma-derived cells (human, UniProt Q16602 23-461; O60894 27-148); assay: cell-based or functional assay
[6] = biological target: T4, human CGRP receptor (CLR/RAMP1), transiently transfected in Cos 7 cells (human, UniProt Q16602 23-461; O60894 27-148); assay: cell-based or functional assay
[7] = biological target: human AMY1(a) receptor (CTR/RAMP1), transiently transfected in Cos 7 cells (human), P30988; assay: cell-based or functional assay
[8] = biological target: T4, human CGRP receptor (CLR/RAMP1), …; assay: cell-based or functional assay; remark: listed apart in the source
[9] = biological target: T4, human CGRP receptor (CLR/RAMP1), …; assay: cell-based or functional assay; remark: listed apart in the source

Sequence of human AMY1(a) receptor (CTR/RAMP1), transiently transfected in Cos 7 cells (human), P30988 (P30988 25-474, chain 1 of 2): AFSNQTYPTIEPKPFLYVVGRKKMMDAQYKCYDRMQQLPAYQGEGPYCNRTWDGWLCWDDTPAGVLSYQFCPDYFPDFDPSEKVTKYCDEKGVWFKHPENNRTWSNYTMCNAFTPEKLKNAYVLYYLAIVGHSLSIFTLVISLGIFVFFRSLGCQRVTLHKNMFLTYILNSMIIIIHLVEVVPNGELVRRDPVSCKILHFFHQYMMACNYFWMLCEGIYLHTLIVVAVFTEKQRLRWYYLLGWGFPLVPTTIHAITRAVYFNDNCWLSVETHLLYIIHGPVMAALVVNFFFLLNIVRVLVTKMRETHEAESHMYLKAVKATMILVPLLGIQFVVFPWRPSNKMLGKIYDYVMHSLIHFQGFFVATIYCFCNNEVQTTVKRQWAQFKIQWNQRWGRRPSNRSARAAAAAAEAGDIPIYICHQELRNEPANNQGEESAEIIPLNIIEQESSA
Sequence of human AMY1(a) receptor (CTR/RAMP1), transiently transfected in Cos 7 cells (human), P30988 (O60894 27-148, chain 2 of 2, further chain): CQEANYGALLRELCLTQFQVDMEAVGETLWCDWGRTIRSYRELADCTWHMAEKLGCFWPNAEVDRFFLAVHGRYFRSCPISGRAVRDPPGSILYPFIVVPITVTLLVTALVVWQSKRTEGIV
T1 sequence (P30988 25-474): as the sequence (P30988 25-474, chain 1 of 2) above
T1 sequence (O60894 27-148): as the sequence (O60894 27-148, chain 2 of 2, further chain) above
T4 sequence (Q16602 23-461, chain 1 of 2): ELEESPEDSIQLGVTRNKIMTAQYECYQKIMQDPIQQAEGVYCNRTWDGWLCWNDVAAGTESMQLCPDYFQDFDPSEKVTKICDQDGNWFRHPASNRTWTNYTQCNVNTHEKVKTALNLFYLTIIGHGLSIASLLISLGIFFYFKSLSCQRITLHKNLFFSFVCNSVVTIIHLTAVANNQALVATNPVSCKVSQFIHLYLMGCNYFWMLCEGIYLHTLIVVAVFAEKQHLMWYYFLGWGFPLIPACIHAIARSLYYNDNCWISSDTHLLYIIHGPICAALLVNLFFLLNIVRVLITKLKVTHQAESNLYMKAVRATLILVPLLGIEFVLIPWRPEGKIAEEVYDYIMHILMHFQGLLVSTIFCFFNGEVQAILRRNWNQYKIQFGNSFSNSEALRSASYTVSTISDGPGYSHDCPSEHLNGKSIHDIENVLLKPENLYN
T4 sequence (O60894 27-148, chain 2 of 2): as the sequence (O60894 27-148, chain 2 of 2, further chain) above
Sequence of CGRP receptor endogenously expressed by SK-N-MC human neuroblastoma-derived cells (Q16602 23-461, chain 1 of 2): as the sequence (Q16602 23-461, chain 1 of 2) above
Sequence of CGRP receptor endogenously expressed by SK-N-MC human neuroblastoma-derived cells (O60894 27-148, chain 2 of 2): as the sequence (O60894 27-148, chain 2 of 2, further chain) above
T3 sequence (Q16602 23-461): as the sequence (Q16602 23-461, chain 1 of 2) above
T3 sequence (O60894 27-148): as the sequence (O60894 27-148, chain 2 of 2, further chain) above
T2 sequence (Q16602 23-461): as the sequence (Q16602 23-461, chain 1 of 2) above
T2 sequence (O60894 27-148): as the sequence (O60894 27-148, chain 2 of 2, further chain) above

| Molecule | A2 (antilog of the negative pA2; cAMP assay, SK-N-MC) [5] | antagonist potency pA2 (cAMP assay, SK-N-MC) [5] | A2 (antilog of the negative pA2; cAMP assay, Cos 7) [6] | Selectivity (fold-difference CGRP vs. AMY1) [6] | antagonist potency pKB (cAMP assay, Cos 7) [6] | A2 (antilog of the negative pA2; cAMP assay, Cos 7) [7] | A2, with wash (cAMP assay, Cos 7) [7] | A2, without wash (cAMP assay, Cos 7) [7] | Fold change reduction in pA2 with wash [7] | antagonist potency pA2, with wash (cAMP assay, Cos 7) [7] | antagonist potency pA2, without wash (cAMP assay, Cos 7) [7] | antagonist potency pKB (cAMP assay, Cos 7) [7] | Fold change reduction in pA2 with wash [8] | A2, with wash (cAMP assay, Cos 7) [9] | A2, without wash (cAMP assay, Cos 7) [9] | antagonist potency pA2, with wash (cAMP assay, Cos 7) [9] | antagonist potency pA2, without wash (cAMP assay, Cos 7) [9] | other results |
| --- | --- | --- | --- | --- | --- | --- | --- | --- | --- | --- | --- | --- | --- | --- | --- | --- | --- | --- |
| CCCCCCCCCCCCCCCC(=O)OCCSC[C@H](NC(=O)[C@@H](NC(=O)[C@@H](NC(=O)CNC(=O)CNC(=O)[C@H](CO)NC(=O)[C@H](CCCNC(=N)N)NC(=O)[C@H](CO)NC(=O)[C@H](CC(C)C)NC(=O)[C@H](CC(C)C)NC(=O)CNC(=O)[C@H](C)NC(=O)[C@H](CC(C)C)NC(=O)[C@H](CCCNC(=N)N)NC(=O)[C@H](Cc1c[nH]cn1)NC(=O)[C@@H](NC(=O)[C@@H](N)C(C)C)[C@@H](C)O)C(C)C)C(C)C)C(=O)N[C@@H](CC(N)=O)C(=O)N[C@@H](CC(N)=O)C(=O)N[C@@H](Cc1ccccc1)C(=O)N[C@H](C(=O)N1CCC[C@H]1C(=O)N[C@H](C(=O)N[C@@H](CC(N)=O)C(=O)N[C@H](C(=O)NCC(=O)N[C@@H](CO)C(=O)N[C@@H](CCCCN)C(=O)N[C@@H](C)C(=O)N[C@@H](Cc1ccccc1)C(N)=O)C(C)C)[C@@H](C)O)C(C)C [A5, K24C(S-Pam) CGRP8-37] (H-VTHRLAGLLSRSGGVVC(Ethyl(2-palmitoyloxy))NNFVPTNVGSKAF-NH2) | – | – | – | – | – | – | – | – | – | – | – | – | – | – | – | – | – | Kb ([1]; not washed, read-out: pA2, AMY1 (CTR/RAMP1), Without wash (converted)): 0.372 nM; Kb ([1]; washed once with PBS, read-out: pA2, AMY1 (CTR/RAMP1), With wash (converted)): 3.55 nM; Kb [2]: 6.76 nM; Kb ([3]; human alpha CGRP, mean ± s.e.m (n), read-out: Antagonist potency (pKB), AMY1 (CTR/RAMP1) (converted)): 1.78 nM; Kb ([3]; read-out: A2 (antilog of the negative pA2), AMY1 (CTR/RAMP1) (converted)): 1.8 nM; Kb [4]: 0.0871 nM |
| VTHRLAGLLSRSGGVVC(Ethyl(2-palmitoyloxy))NNFVPTNVGSKAF-NH2 [K24C(S-Pam) CGRP8-37 A5] | 0.09 nM | 10.1 | 6.8 nM | -4 fold | 8.17 | 1.8 nM | 3.5 nM | 0.37 nM | 9.6 fold | 8.45 | 9.43 | 8.75 | 14 fold | 0.74 nM | 0.05 nM | 9.13 | 10.3 | – |
| C(Ethyl(2-palmitoyloxy))THRLAGLLSRSGGVVKNNFVPTNVGSKAF-NH2 [V8C(S-Pam) CGRP8-37 A4] | 0.02 nM | 10.8 | 0.59 nM | 12 fold | 9.23 | 7.1 nM | 2.9 nM | 1 nM | 2.8 fold | 8.54 | 8.98 | 8.15 | 22 fold | 3.3 nM | 0.15 nM | 8.48 | 9.82 | – |
| B1 | 0.02 nM | 10.7 | 1.7 nM | < 2 fold | 8.78 | – | – | – | – | – | – | – | 3.3 fold | 0.46 nM | 0.14 nM | 9.34 | 9.86 | – |
